Assay results taken from paper PMC12403130, “A β-cap on the FliPQR protein-export channel acts as the cap for initial flagellar rod assembly” (Proceedings of the National Academy of Sciences of the …, 2025).

Molecular target: the molecule itself
Assay: cryo-EM structure; FliP, FliQ and FliR-His co-expressed in Salmonella SJW1368, complex solubilised with LMNG, purified and reconstituted in a peptidisc; single-particle analysis, C1 symmetry, 3.0 Å, closed form

B1: FliP (natural protein)
chain: QLPGLISQPLAGGGQSWSLSVQTLVFITSLTFLPAILLMMTSFTRIIIVFGLLRNALGTPSAPPNQVLLGLALFLTFFIMSPVIDKIYVDAYQPFSEQKISMQEALDKGAQPLRAFMLRQTREADLALFARLANSGPLQGPEAVPMRILLPAYVTSELKTAFQIGFTIFIPFLIIDLVIASVLMALGMMMVPPATIALPFKLMLFVLVDGWQLLMGSLAQSFYS
notes: FliP, Salmonella enterica serovar Typhimurium; signal peptide (residues 1 to 21) cleaved between Ala-21 and Gln-22 during membrane insertion; the mature protein begins at Gln-22; Five copies of FliP stand in the FliP5-FliQ4-FliR1 complex; also called mature FliP; FliP^1; source: membranes solubilised with 1% LMNG; reconstituted in a peptidisc
  stoichiometry N: 5
